Experimental findings from article PMC5597324 (Molecular Biology of the Cell, 2017) are described below.

The data set deals with the molecule itself. The data set can be described thus: SEC. A general note: SEC sorts molecules by how far they enter the pores of the column.

Changes are numbered by the printed parent chain. Names and notes keep the numbering of the source.

B1: MBP-Stv1NT-FLAG (cytosolic N-terminal domain of the yeast Golgi V-ATPase Vo a-subunit isoform Stv1, aa 1-418) (domain or fragment, S. cerevisiae, UniProt P37296 1-418, looked up)
chain: MNQEEAIFRSADMTYVQLYIPLEVIREVTFLLGKMSVFMVMDLNKDLTAFQRGYVNQLRRFDEVERMVGFLNEVVEKHAAETWKYILHIDDEGNDIAQPDMADLINTMEPLSLENVNDMVKEITDCESRARQLDESLDSLRSKLNDLLEQRQVIFECSKFIEVNPGIAGRATNPEIEQEERDVDEFRMTPDDISETLSDAFSFDDETPQDRGALGNDLTRNQSVEDLSFLEQGYQHRYMITGSIRRTKVDILNRILWRLLRGNLIFQNFPIEEPLLEGKEKVEKDCFIIFTHGETLLKKVKRVIDSLNGKIVSLNTRSSELVDTLNRQIDDLQRILDTTEQTLHTELLVIHDQLPVWSAMTKREKYVYTTLNKFQQESQGLIAEGWVPSTELIHLQDSLKDYIETLGSEYSTVFNVIL
Regarding B1, the binding result is “binds”.

B2: MBP-Stv1NT(K84A)-FLAG (domain or fragment, S. cerevisiae, UniProt P37296 1-418, looked up)
chain: B1 chain with K84A
For B2, the binding result is given as “binds”.
